Experiment [1] concerns the target T1, AK564 (human, UniProt Q13261 31-96).
T1 construct: also called IL-15 masked non-cleavable AK564
Put plainly: SPR (Biacore 8K), multi-cycle kinetics, human CD215 immobilised by amine coupling, construct as analyte, 25 C. For orientation: In SPR one partner is held on a chip, and binding of the other changes the refractive index at the surface.

The target of experiment [2] is T1, AK564. Put plainly: SPR (Biacore 8K), multi-cycle kinetics, human CD122 immobilised by amine coupling, construct as analyte, 25 C.

B1: Recombinant Human IL-15R alpha Fc chimera Protein (CD215) (Fc fusion, UniProt Q13261 31-205, looked up)
chain: ITCPPPMSVEHADIWVKSYSLYSRERYICNSGFKRKAGTSSLTECVLNKATNVAHWTTPSLKCIRDPALVHQRPAPPSTVTTAGVTPQPESLSPSGKEPAASSPSSNNTAATTAAIVPGSQLMPSKSPSTGTTEISSHESSHGTPSQTTAKNWELTASASHQPPGVYPQGHSDTT
notes: also called human CD215; Fc part of the bought chimera not given
Turning to B1, the binding result with AK564 [1] is on record as “no binding (tested: Top 40 nM, 2x dilution)”.

B2: Recombinant Human IL-2 R beta Protein (CD122) (receptor, UniProt P14784 27-239, looked up)
chain: AVNGTSQFTCFYNSRANISCVWSQDGALQDTSCQVHAWPDRRRWNQTCELLPVSQASWACNLILGAPDSQKLTTVDIVTLRVLCREGVRWRVMAIQDFKPFENLRLMAPISLQVVHVETHRCNISWEISQASHYFERHLEFEARTLSPGHTWEEAPLLTLKQKQEWICLETLTPDTQYEFQVRVKPLQGEFTTWSPWSQPLAFRTKPAALGKD
notes: also called human CD122
Consider B2, for which the binding result in the experiment with AK564 [2] is given as “no binding (tested: Top 500 nM, 2x dilution)”.

The values are drawn from patent US20230331799A1 (XILIO DEVELOPMENT, published 2023).
